Data reported in the supplement of paper PMC10567573.

B1: PPEF2 (parent)
chain: AFKAAALIQRWYRRYVARLEMRRR

Variants of: B1
Assay: protein stability index of a GFP-peptide fusion (GPS, HEK-293T) (PSI 1-6); higher = more stable
Settings: c terminus: a fixed tail appended
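Further: lentivirally expressed fusions sorted by FACS into six bins by GFP to DsRed ratio, PSI derived from sequencing read proportions per bin multiplied by bin number.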

| Variant | protein stability index |
| --- | --- |
| AFKAAALIQDWYRRYVARLEMRRR [R10D] | 1.67 |
| AFKAAALIQHWYRRYVARLEMRRR [R10H] | 2.51 |
| AFKAAALIQGWYRRYVARLEMRRR [R10G] | 1.88 |
| AFKAAALIQAWYRRYVARLEMRRR [R10A] | 2.4 |
| AFKAAALIQTWYRRYVARLEMRRR [R10T] | 2.1 |
| AFKAAALIQLWYRRYVARLEMRRR [R10L] | 1.71 |
| AFKAAALIQFWYRRYVARLEMRRR [R10F] | 2.88 |
| AFKAAALIQNWYRRYVARLEMRRR [R10N] | 3.6 |
| AFKAAALIQSWYRRYVARLEMRRR [R10S] | 2.27 |
| AFKAAALIQRWYRRYVARLLMRRR [E20L] | 2.69 |
| AFKAAALIQRWYRRYVARLGMRRR [E20G] | 3.31 |
| AFKAAALIQRWYRRYVARLFMRRR [E20F] | 3.06 |
| AFKAAALIQRWYRRYVARLMMRRR [E20M] | 2.39 |
| AFKAAALIQRWYRRYVARLQMRRR [E20Q] | 4.2 |
| AFKAAALIQRWYRRYVARLNMRRR [E20N] | 4.16 |
| AFKAAALIQRWYRRYVARLIMRRR [E20I] | 2.63 |
| AFKAAALIQRWYRRYVARLHMRRR [E20H] | 3.46 |
| AFKAAALIQRWYRRYVARLPMRRR [E20P] | 3.41 |
| AFKAAALIQRWYRRYVARLDMRRR [E20D] | 3.02 |
| AFKAAALIQRWYRRYIARLEMRRR [V16I] | 3.94 |
| AFKAAALIQRWYRRYFARLEMRRR [V16F] | 3.25 |
| AFKAAALIQRWYRRYWARLEMRRR [V16W] | 2.32 |
| AFKAAALIQRWYRRYKARLEMRRR [V16K] | 4.73 |
| AFKAAALIQRWYRRYNARLEMRRR [V16N] | 3.02 |

| Variant | protein stability index |
| --- | --- |
| AFKAAALIQRWYRRYCARLEMRRR [V16C] | 3.05 |
| AFKAAALIQRWYRRYLARLEMRRR [V16L] | 4 |
| AFKAAALIQRWYRRYEARLEMRRR [V16E] | 2.13 |
| AFKAAALIQRWYRRYSARLEMRRR [V16S] | 4.23 |
| AFKAAALIQRWYRRYPARLEMRRR [V16P] | 1.92 |
| AFKAAALIQRWYRRYHARLEMRRR [V16H] | 3.66 |
| AFKAAALIQRWYRRYRARLEMRRR [V16R] | 5.4 |
| AFKAAALIQRWYRRYYARLEMRRR [V16Y] | 2.96 |
| AFKAAALIQRWYRRYMARLEMRRR [V16M] | 4.45 |
| AFKAAALIQRWYRRYAARLEMRRR [V16A] | 3.94 |
| AFKAAALIQRWYRRYTARLEMRRR [V16T] | 3.53 |
| AFKAAALIQRWYKRYVARLEMRRR [R13K] | 2.22 |
| AFKAAALIQRWYNRYVARLEMRRR [R13N] | 1.15 |
| AFKAAALIQRWYTRYVARLEMRRR [R13T] | 1.8 |
| AFKAAALIQRWYIRYVARLEMRRR [R13I] | 2.53 |
| AFKAAALIQRWYLRYVARLEMRRR [R13L] | 2.05 |
| AFKAAALIQRWYMRYVARLEMRRR [R13M] | 1.93 |
| AFKAAALIQRWYFRYVARLEMRRR [R13F] | 2.06 |
| AFKAAALIQRWYARYVARLEMRRR [R13A] | 1.62 |
| AFKAAALIQRWYQRYVARLEMRRR [R13Q] | 2.26 |
| AFKAAALIQRWYERYVARLEMRRR [R13E] | 1.95 |
| AFKAAALIQRWYHRYVARLEMRRR [R13H] | 2.16 |
| AFKAAALIQRWYPRYVARLEMRRR [R13P] | 1.23 |
| AFKAAALIQRWYRRYVWRLEMRRR [A17W] | 2.66 |

| Variant | protein stability index |
| --- | --- |
| AFKAAALIQRWYRRYVIRLEMRRR [A17I] | 2.96 |
| AFKAAALIQRWYRRYVKRLEMRRR [A17K] | 3.57 |
| AFKAAALIQRWYRRYVQRLEMRRR [A17Q] | 3.62 |
| AFKAAALIQRWYRRYVTRLEMRRR [A17T] | 3.34 |
| AFKAAALIQRWYRRYVERLEMRRR [A17E] | 3.13 |
| AFKAAALIQRWYRRYVRRLEMRRR [A17R] | 3.67 |
| AFKAAALIQRWYRRYVDRLEMRRR [A17D] | 2.33 |
| AFKAAALIQRWYRRYVGRLEMRRR [A17G] | 3.96 |
| AFKAAALIQRWYRRYVYRLEMRRR [A17Y] | 2.76 |
| AFKAAALIQRWYRRYVHRLEMRRR [A17H] | 2.63 |
| AFKAAALIQRWYRRYVFRLEMRRR [A17F] | 2.6 |
| AFKAAALIQRWYRRYVPRLEMRRR [A17P] | 2.09 |
| AFKAAALIQRWYRRYVNRLEMRRR [A17N] | 3.84 |
| AFKAAALIQRWYRRYVSRLEMRRR [A17S] | 3.2 |
| AFKAAALIQRWYRRYVCRLEMRRR [A17C] | 2.53 |
| AFKAAALIQRWYRRYVLRLEMRRR [A17L] | 3.75 |
| AFKAAALIQRWYRRYVVRLEMRRR [A17V] | 3.84 |
| AFKAAALIQRWYRRYVARQEMRRR [L19Q] | 3.87 |
| AFKAAALIQRWYRRYVARIEMRRR [L19I] | 3.64 |
| AFKAAALIQRWYRRYVARWEMRRR [L19W] | 2.13 |
| AFKAAALIQRWYRRYVARNEMRRR [L19N] | 3.12 |
| AFKAAALIQRWYRRYVARVEMRRR [L19V] | 3.42 |
| AFKAAALIQRWYRRYVARKEMRRR [L19K] | 4.7 |
| AFKAAALIQRWYRRYVARYEMRRR [L19Y] | 2.03 |

| Variant | protein stability index |
| --- | --- |
| AFKAAALIQRWYRRYVARTEMRRR [L19T] | 4.63 |
| AFKAAALIQRWYRRYVARHEMRRR [L19H] | 3.33 |
| AFKAAALIQRWYRRYVARPEMRRR [L19P] | 3.63 |
| AFKAAALIQRWYRRYVARCEMRRR [L19C] | 2.48 |
| AFKAAALIQRWYRRYVARFEMRRR [L19F] | 2.45 |
| AFKAAALIQRWYRRYVARSEMRRR [L19S] | 4.1 |
| AFKAAALVQRWYRRYVARLEMRRR [I8V] | 3.41 |
| AFKAAALFQRWYRRYVARLEMRRR [I8F] | 2.29 |
| AFKAAALDQRWYRRYVARLEMRRR [I8D] | 3.02 |
| AFKAAALCQRWYRRYVARLEMRRR [I8C] | 3.52 |
| AFKAAALNQRWYRRYVARLEMRRR [I8N] | 2.98 |
| AFKAAALAQRWYRRYVARLEMRRR [I8A] | 2.38 |
| AFKAAALLQRWYRRYVARLEMRRR [I8L] | 3.02 |
| AFKAAALYQRWYRRYVARLEMRRR [I8Y] | 2.19 |
| AFKAAALRQRWYRRYVARLEMRRR [I8R] | 3.09 |
| AFKAAALHQRWYRRYVARLEMRRR [I8H] | 2.16 |
| AFKAAALTQRWYRRYVARLEMRRR [I8T] | 2.37 |
| AFKAAALSQRWYRRYVARLEMRRR [I8S] | 4.29 |
| AFKAAALMQRWYRRYVARLEMRRR [I8M] | 1.94 |
| AFKAAALKQRWYRRYVARLEMRRR [I8K] | 3.15 |
| AFKAAALIQRPYRRYVARLEMRRR [W11P] | 2.62 |
| AFKAAALIQRGYRRYVARLEMRRR [W11G] | 2.55 |
